{"source": "the nanobody polyreactivity screen of Harvey et al. (2022)", "data": [{"experiment": "yeast display, Sf9 membrane polyspecificity reagent, FACS + sequencing; frameworks hold sequencing errors", "method_in_brief": "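A synthetic nanobody library was expressed on Saccharomyces cerevisiae BJ5465 by galactose induction for 36–48 hours. The library was stained for 1 hour at 4 °C with 10% biotinylated, detergent-solubilized Sf9 membrane reagent and enriched with streptavidin microbeads before FACS. Low and high (top ~1%) gates were set on anti-HA fluorescence for expression and streptavidin fluorescence for reagent binding, and each polyreactivity label reflects the gate of origin.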", "values": [{"sequence": "QVQLVESGGGLVQAGGSIRLSCAASGITFVGNAMGWYRQAPGKERELVASISSGASTNYADSVKGRFTISRDNAKNTVYLQMNSLKPEDTAVYYCAAEGSLEGWDFDSWGQGTQVTVSS", "polyreactivity (PSR sort gate)": "low polyreactivity"}, {"sequence": "QVQLVESGAGLVQAGGSLRLSCAASGSTFGINAMGWYRQAHGKEREFVASISWSTGTKYYADSVKGRFTISRDNAKNTVYLQMNSLKAEDTAVYYCAAVCSRFYGLPRYYYCGQGTQVTVSS", "polyreactivity (PSR sort gate)": "high polyreactivity"}, {"sequence": "QVQLVESGGGLVQAGGRLRLSCAASGRIFGVNAMGWYRQAPGKERELVAVISSGGSTYYADSVKGRFTISRDNAKNTVYLQMNSLKPEDTAVYYCNAVVGRWFPYNLSDYWGQGTQVTVSS", "polyreactivity (PSR sort gate)": "low polyreactivity"}, {"sequence": "QVQLVESGGGLVQAGGSLRLSCAASGLTFTGNAMGWNRQAPGKEREFVAAIRWSAGSTYYADSVKGRFTISRDNAKNTVYLQMNSLKPEDSAVYYCNAGLNVSGHYPNDYWGQGTQVTVSS", "polyreactivity (PSR sort gate)": "low polyreactivity"}, {"sequence": "QVQLVESGGGLVQAGGSLRLSCAASGFNFYRNTMGWYSQAPGKEREFVAAIRWRGGSTYYADSVKGRFTISRDNAKNTVYLQMNSLKPEDTAVYYCAADTRPGYSGFEYWGQGTQVTVSS", "polyreactivity (PSR sort gate)": "high polyreactivity"}, {"sequence": "QVQLVESGGGLVQAGGSLRLSCAASGFIFKYYAMGWYRHAPGKERELVAAISRRGGSTFYADSVKGRFTISRDNAKNTVYLQMNSLKPEDTAVYYCAKYPQTLPIDVWTWIHDYWGQGTQVTVSS", "polyreactivity (PSR sort gate)": "high polyreactivity"}, {"sequence": "QVQLVESGGGLVQAGGSLRLSCAASGFTFYYYAMGWYRQAPGKESDLVAAISWSGGTTYYADSVKGRFTISRDNAKNTVYFQMNSLKPEDPAVYYCAADIRDPGVPMDYWGQGTQVTVSS", "polyreactivity (PSR sort gate)": "low polyreactivity"}, {"sequence": "QVQLVESGGGLVQAGGSLRLSCAASVRTFYFYTMGWYRQSPGKERELVATIRWSAGSTYYADSVKGRFTISRDNAKNTVYLQMNSLKPEDTAVYYCNADPFVYSSWQYGYWGQGTQVTVSS", "polyreactivity (PSR sort gate)": "high polyreactivity"}, {"sequence": "QVQLVESGGGLVQAGGSLRLSCAASGNTFFKNAMGWYRQAPGKERELVAAISKRGGSTYYADSVKGRFTISRDNAKNTVYLQMNSLIPEDTAVYYCAADTFGVYASTYDYWGQGTQVTVSS", "polyreactivity (PSR sort gate)": "high polyreactivity"}, {"sequence": "QVQHVQSGGGLVQAGGSLRLSCAASGYIFWSYEIGGYRQAPGKERELDATITSGDSTYYADSVKGRFTISRDNAKNTVYLQMKSLKPEDTALDYCAACTYYRLTYWLREYDYSGQGTQVTVSS", "polyreactivity (PSR sort gate)": "low polyreactivity"}, {"sequence": "QVQLVESGGGLVQAGGSLRLSCAASGIIFYYYAMGWYRQAPGKERELVAAISWSGGSTYYADSVKGRFTISRDNAKNTVYLQMNSLKPEDTAVYYCAASSTSGYDWGQGTQVTVSS", "polyreactivity (PSR sort gate)": "low polyreactivity"}, {"sequence": "QVQLVESGGGLVQAGGRLRLSCAASGGTFRLYTMASYRQAPGKERELVAGISSSSGSTYYADSVKGRFTISRDNAKNTVYLQMNSLKPEDTAVYYCAAYWPRSRYDYWGQGTQVTVSS", "polyreactivity (PSR sort gate)": "high polyreactivity"}, {"sequence": "QVQLVESGGGLVQAGGSLRLSCAASGSIFFSYAMGWYRQAPGKERELVAAISSGGSTYYADSVKGRFTISRDNAKNTVYLQMNSLKPEDTAVYYCAARGYRLVPVDFYYWGQGTQVTVSS", "polyreactivity (PSR sort gate)": "low polyreactivity"}, {"sequence": "QVQLVESGGGLVQAGGSLRLSCAASGFMFTRYAMGSYRQAPGKERELVAAISWIGTSTYYADSVKGRCTISRDNAKNTVFLQMNSLTPEDTAVYYCNALLYSTGRPGFYLGYDYWGQGTQVTVSS", "polyreactivity (PSR sort gate)": "high polyreactivity"}, {"sequence": "QVQLVESGRGLVQAGGSLRLSCAASGFTFVYYAMGWYRQAPGKERELVATISGNGGRTYYADSVKGRFTISRDNAKNTVYLQMNSLKPEDTAVYYCAALLYIRSVGYDYWGQGTQVTVSS", "polyreactivity (PSR sort gate)": "low polyreactivity"}, {"sequence": "QVQLVESGGGLVQAGGSLRLSCAASGFIFSGYAMGWYRQAPGKERELVAAITWSGSNTFYADSVKGRFTISRDNPKNTVYLQMNSLKPEDTAVYYCNGVSKYIRSDYYYWGQGTQVTVSS", "polyreactivity (PSR sort gate)": "high polyreactivity"}, {"sequence": "QVQLVESGGGLVQAGGSHRLSCSASGSIIFYYAMGWDRQAPGKEREFVAAITRSGVRTYYADSVKGRFTISRDNAKNTVYLQMNSLKPEDTAVYYCNADYGFYRPVLMGYWGQGTQVTVSS", "polyreactivity (PSR sort gate)": "low polyreactivity"}, {"sequence": "QVQLVESRGGLVQAGGSLRLSCPDSGSNLLSYAMGWYRQAPGKERELVAAITTRDGSTYYADSVKGRFTISRDNAKYTVYLQMTSLKPEDTAVYYCNVDARSSYDYWGQGTQVTVSS", "polyreactivity (PSR sort gate)": "low polyreactivity"}, {"sequence": "QVQLVESGGGLVQAGGSLRLSCAASGSTFRGYAMGRYRQAPGKERELVAAITRNGGSTYYADSVKGRFTISRDNAKNTVYLQMNSLKPEDTAVFYCAAAKRRTVGVKYTFDYWGQGTQVTVSS", "polyreactivity (PSR sort gate)": "high polyreactivity"}, {"sequence": "QVQLVESGGGLVQAGGSLRLSCAASGSIFWWNAMGWYRQAPGKERELVAGISRGGSTYYADSVKGRFTISRDNAKNTVYLQMNSLKPEDTAVYYCNADSDPVPAGYDYWGQGTQVTLSS", "polyreactivity (PSR sort gate)": "low polyreactivity"}, {"sequence": "QVQLVESGGGLVQAGGSLRLSCAASGSIFYAYTMGWYRQAPGKERELVASITKSGGSTYYADSVKGRFTISRDNAKNTVYLQMNSLKPEDTAVYYCAAAFNRYGTTSYWYRHYYWGQGTQVTVSS", "polyreactivity (PSR sort gate)": "high polyreactivity"}, {"sequence": "QVQLVESGGGLVQAGGSLRLSCAASGFTYVVYDMGWYRQAPGKERELLAVITNSGGSTYYADSVKGRFTISRDNAKNTVYLQMYSLKPEDTAVYYCATRTPVWVNTESDYWGQGTQVTVSS", "polyreactivity (PSR sort gate)": "low polyreactivity"}, {"sequence": "QVQLVESGGGLVQAGGSLRLSCAASGITFDVYAMGWYRQAPGKERELVAAISSVGGTYYADSVKGRFTISRDNAKNTVYLQMNSLKPEDTAVYYCNTDGYVGSIRSGLYIYDYWGQGTQVTVSS", "polyreactivity (PSR sort gate)": "low polyreactivity"}, {"sequence": "QVQLVESGGGLVQAGGSLRLSCAASGSTIYSYAMGWYRQAPGKERELVAAISWSGARTYYADSVKGRFTISRDIAKNTVYLQMNSLKPEDTAVYYCAASGYYSSHMDYWGQGTQVTVSS", "polyreactivity (PSR sort gate)": "high polyreactivity"}, {"sequence": "QVQLVESGGRLVQAGGSLRLSCAASGRTFGYYAKGLSRQAQGKEREFVAAISFRTTSTYYADSVKGRFTISRDNAKNTVYLQMISLKPEDTAVYYCNVVVKGAWDYYPYDYWGQGPQVTVSS", "polyreactivity (PSR sort gate)": "high polyreactivity"}, {"sequence": "QVQLVESGGGLVQVGGSLRLSCDASGITLSYYAMGWYRQAPGKVRELVASITVSRTSTYYADSVKRRFTISRDNAKNTVYLQMNSLKPEDTAVYYCAAYAFQYRFSGYGYWGQGTQVTVSS", "polyreactivity (PSR sort gate)": "low polyreactivity"}, {"sequence": "QVQLVESGGGLVQAGGSLRLSCAASGSIFSENTMGWYRQAPGKKRELVADITSGGSTNYADSVKGRFTISRDNAKNTVYLQMNSLKPEDTAVYYCNADWEAYKYNYWGQGTQVTVSS", "polyreactivity (PSR sort gate)": "low polyreactivity"}, {"sequence": "QVQLVESGVGLVQAGGSLRLSCAASGSTFKGYTMGWYRQAPGKERELVAAITYSGGRTYYADSVKGRFTISRDNAKNTVYLQMNSLKPEDTAVYYCAARQQWVKVEYDYWGQGTQVTVSS", "polyreactivity (PSR sort gate)": "high polyreactivity"}, {"sequence": "QVQLVESGGGLVQAGGSLRLSCAASGGTFYPYAMGWYRQAPGKVRELVAAITSCGSTNYADSVKGRFTISRDNAKKTVYLQMNSLKPEDTAVYYCAAKSSYIRPTNSDDYDYWGQGTQVTVSS", "polyreactivity (PSR sort gate)": "low polyreactivity"}, {"sequence": "QVQHVESGGGLLQAGGSLRLSCAASGGTFTPNVMGWYRQAPGKVRELVAAIDDSGSRTYYADSVKGRFTISRDYAKNTVYLQMNSLKPEDTAVYFCAVFWYGTYPMYYWGQGTQVTVSS", "polyreactivity (PSR sort gate)": "low polyreactivity"}, {"sequence": "QVQLVESGGGIVQAGGSLRLSCAASGRTYPGYAMGWYRQAPGKERELVATITFSDGSTYYADSVKGRFTISRDNAKNTVYLQMNSLKPVDTAVYYCNARRSYFLRYGVNYWGQGTQVTVSS", "polyreactivity (PSR sort gate)": "low polyreactivity"}, {"sequence": "QVQLVESGGGLVQAGGSLRLSCAASGSIFYYYVMGWYRQAPGKERELVAAISSGGGTNYADSVKGRFTISRDNAKNTVYLQLNRLKPEDTAVYYCAKASAYGLANDYDYWGQGTLVTVSS", "polyreactivity (PSR sort gate)": "low polyreactivity"}, {"sequence": "QVQLQESGGSLVQAGGSLRLSCSASGNILVLPHGLVSPGAERELVATITGGSITYYADSEKGRFTISRDNAKNTVYLQMNSLKPGDTAVYYCAVINIYHRPHPYWGQGTLVTVSS", "polyreactivity (PSR sort gate)": "high polyreactivity"}, {"sequence": "QVQLVESGGGLVQAGGSLRISCAASGRTFFHYAMGWYRQAPGKERELVAGITSGGRTKYADSVKGRFTISRDNAKKTVYLQKNSMKPEDTAVYVCAASYIVWLTRGSPRKLFDYWGQGSQVTVSS", "polyreactivity (PSR sort gate)": "high polyreactivity"}, {"sequence": "QVHLVESGGGLVQAGGSLRLSCAASGILRLNAMGWYRQAPGKEREFVATISRSGGITYYADSVKGRFTISRDNAKNTVYLQMNSLKPEDTAVYYCAKGGYSLYGYWGQGTQVTVSS", "polyreactivity (PSR sort gate)": "high polyreactivity"}, {"sequence": "QVQLVESGGGLVQAGGSLRLSCAASGSTFISNAMGWYRQAPGKERELVASITWTDVSTYYADSVKGRFTISRDNAKNTVYLQMNSLKPEDTAVYYCAAVTGLSSNDGYDYWGQGTQVTVSS", "polyreactivity (PSR sort gate)": "low polyreactivity"}, {"sequence": "QVQLVESGGGLVQAGGSLRLSCAASGRTFAAYAMGWYRQAPGKERELVAAISRGGGRTYYADSVKGRFTISRDNAKNTVYLQMNSLKPEDTAVYYCNAVRPRDNGSWGQGTQVTVSS", "polyreactivity (PSR sort gate)": "high polyreactivity"}, {"sequence": "QVQLVESWGGLVQAGGSLRLSCAASGITLGYYSMGWYRQAPGKERELVAGISSSGDSTYYADSVKGRFTISRDNAKNSVYLQIKSLKPEDTAVYYCIADGWYFEYWGQGTQVTVSS", "polyreactivity (PSR sort gate)": "low polyreactivity"}, {"sequence": "QVQLVESGGGLVQAGVSLRLSCAASGRTFALNVMGWYRQAPGKERELVAAISRSGGSTYYAESVKGRFTISRDNAKNTVYLQMNSLKPEDTAVYYCAAATHYQSYNRRDYWGQGTQVTVSS", "polyreactivity (PSR sort gate)": "high polyreactivity"}, {"sequence": "QVQLVETGGGLVQAGGILRLSCAASGSIFKAYAMGWYRQAPGKERELVAAITWSGGSTYYADSVKGRFTNSRDNAKNTVYLQMNSLKPEDTAVYYCAATLGLWAYYLYDYWGQGTQVTVSS", "polyreactivity (PSR sort gate)": "low polyreactivity"}, {"sequence": "QVQLEDSGGGLVQAGGSLRLSCAASGSIFATNAMGWYRQGPGKERELVAAISRSGASTYYADSVKGRFTISRDNAKNTVYLQMNRLKPEDTAVYYCNKVLYRDAYHSYGFEYWGQGTQVTVSS", "polyreactivity (PSR sort gate)": "high polyreactivity"}, {"sequence": "QVQLVESGGGLVQAGGSLRLSCAASGRIFTGYDMGWYRQAPGKERELVAAISRGGSTNYADSVKGRFTISRDNAKNTVYLQMNSLKPEDTAVYYCADGVHWDRGDYWVQGTQVTVSS", "polyreactivity (PSR sort gate)": "low polyreactivity"}, {"sequence": "QVHLVDSGGGLVQAGGSLRLSCAASGFNFTYYGMGSYRQAPGKERELVAAISESCGSTYYADSVKGRFTISRDNAKNTVYLQMTSLKPEDTAVYYCAADVTKRASRDYYWGQGTQVTVSS", "polyreactivity (PSR sort gate)": "high polyreactivity"}]}]}
